Data reported in IntAct's records for PubMed 30902834.

B1: Protein-arginine N-acetylglucosaminyltransferase SseK3 (Salmonella typhimurium (strain SL1344)), P0DUJ7 (parent)
chain: MFSRVRGFLSCQNYSHTATPAITLPSSGSANFAGVEYPLLPLDQHTPLLFQWFERNPSRFGENQIPIINTQQNPYLNNIINAAIIEKERTIGVLVDGNFSAGQKKALAKLEKQYENIKVIYNSDLDYSMYDKKLSDIYLENIAKIEAQPANVRDEYLLGEIKKSLNEVLKNNPEESLVSSHDKRLGHVRFDFYRNLFLLKGSNAFLEAGKHGCHHLQPGGGCIYLDADMLLTGKLGTLYLPDGIAVHVSRKGNSMSLENGIIAVNRSEHPALKKGLEIMHSKPYGDPYIDGVCGGLRHYFNCSIRHNYEEFCNFIEFKHEHIFMDTSSLTISSWR
B2: Protein-arginine N-acetylglucosaminyltransferase SseK3 (Salmonella typhimurium (strain SL1344)), P0DUJ7 (parent)
chain: B1 chain
partner: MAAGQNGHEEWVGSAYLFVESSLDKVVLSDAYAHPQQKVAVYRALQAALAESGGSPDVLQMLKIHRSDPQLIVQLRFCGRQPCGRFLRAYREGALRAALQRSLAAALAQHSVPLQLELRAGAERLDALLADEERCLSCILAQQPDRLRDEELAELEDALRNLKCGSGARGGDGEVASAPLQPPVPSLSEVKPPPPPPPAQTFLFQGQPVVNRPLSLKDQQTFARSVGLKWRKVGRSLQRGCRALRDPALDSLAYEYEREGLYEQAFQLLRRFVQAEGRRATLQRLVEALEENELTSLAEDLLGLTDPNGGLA

Variants of: B1
Settings: with tr10b_human TNFRSF10B

Row | Variant | effect of a mutation on the interaction
1 | E258A | disrupting interaction

Variants of: B2
Settings: with tradd_human TRADD

Row | Variant | effect of a mutation on the interaction
2 | E258A | disrupting interaction
